B1: hB273 antibody (humanized B273) (antibody, human IgG1, kappa, V domains shown)
VH: EVQLVQSGAEVKKPGASVKVSCKASGYSFIGYFMNWMKQSPGMSLEWIGRFNPYNEDTFYNQKFKGKATLTVDKSTSTAYMELSSLRSEDTAVYFCARSAYYFDSGGYFDYWGQGTLVTVSS
VL: DIVMTQSPLSLPVTPGEPASISCRSSQSLVHSNKNTYLHWYLQKPGQSPQLLIYKVSNRFSGVPDRFSGSGSGTDFTLKISRVEAEDVGVYYCSQSTHVPWTFGPGTKVEIKR
notes: Anti-DR5 antibody
B2: hB273-vc-MMAE (antibody drug conjugate of hB273 conjugated with mc-vc-MMAE) (antibody, V domains shown)
VH: B1 VH
VL: B1 VL
modifications: mc-vc-MMAE drug-linker on cysteine thiols freed by partial TCEP reduction; average about 3.5 to 4.5 drug-linker units per antibody; positions not given
notes: Antibody drug conjugate of hB273; also called hB273-veMMAE

What was measured:
[1] = target: T1, recombinant soluble DR5 protein (rsDR5) (human, UniProt O14763 56-183); assay: SPR, BIAcore 3000; antibody captured by anti-human IgG (Fc) on CM5 chip, rsDR5 0.3-85 nM as analyte
T1 construct: Expressed in E. coli from pET21b(+)-sDR5 and purified on Ni-NTA; also called DR5 extracellular domain protein
Protocol: (§1) For the direct coupling of anti-human IgG (Fc), CM5 sensor chips and the reference flow cells were coated with ˜1500-2000 RU in HBS-EP+(10 mM HEPES buffer, pH 7.4, 0.15 M NaCl, 3 mM EDTA, and 0.05% Surfactant P20). […] For regeneration, 3 M MgCl₂ was loaded at flow rate of 10 μl/min for 30 sec. All sensograms were globally fitted using BIAevaluation software 3.1 (Biacore) to determine the dissociation constant KD (KD=koff/kₒₙ).

[2] = target: T1, recombinant soluble DR5 protein (rsDR5); assay: SPR, BIAcore 3000; conjugate captured by anti-human IgG (Fc) on CM5 chip, rsDR5 0.3-85 nM as analyte
Protocol: as §1

| Binder | Kd [1] [nM] | kon [1] [M⁻¹ s⁻¹] | Kd [2] [nM] |
| --- | --- | --- | --- |
| B1 | 2.6 | 2.6e+06 |  |
| B2 |  |  | 3.2 |
